Protein production data for 17 sequences are collected here from a protein production outcome set (Wang et al. 2014).

A short description of this data set: label from the status in PepcDB records.
Turning to “MKLDDLNLFRLVVENGSYTATSRKTMIPVATITRRIQALEDSVNLRLLNRHARKLSLTEAGERFYHECSPLLQRLTSTAEEITDDCRGASGKIKISAPYNLTKRMMMPMFNDFMKKYPDINIELTTENNADQLDPTEWDVIFRVGPQRDSSLIARKIGEVKDILVASQDYLAANPAPNHAEELSNHSLLKGYPLIKWTLINSKGESVVNVERGRFQANALNVVRSACSEGLGITLMPDVMIKEYIESGELLRVLPDWSANPRDIYMLYNHKDHLPEKVRLFIDFVIAYNIH”, the protein production result was “failed”.

Turning to “SAPPKQSWEQAVDTLRDIGALNAAGQITELGRTLATLPTDPRLGASLLHCGGGAAPTIAALSLDARGDIPRAIAAMSHQQRFTREVARLAGFVP”, the protein production entry was “failed”.

For the sequence “MRRNTALTRIMASGVAAIMLCAGGTFTVNAAEEEPVKADVSVKAIQGLSDDFIGGMDVSSMLSLEESGVTFKNANGEVEDLFTLLKESGVNYVRLRVWNDPFTADGQGYGGGNVNADRALTMAKRATAAGLKVLVDFHYSDFWADPSKQQVPKAWKSFEGDADKTADTVYDYTKQTLTTFKQAGVDVGMVQVGNETTAKIAGISGWDGMSKVFSAGSKAIREVLPEAKVVIHFTNPEKAGTYATYAKQLSNHNVDYDVFASSYYPFWHGTTENLTSVLKNVASTYKKDVMVAETSWAYTLDDGDDDSNTVPSKVTADNLKKYDISPQGQADEIRAVAEAVNNIGDNDGDGENDGLGVFYWEPAWVPVGTGGKDNAELVDTWNKYGGGWATEAAGEYDPNDAGLYWGGSGVDNQALFDFDGKALASLPTFKYIHTGAVTDHVFTKIDPVEITATDSDSIDAIKAQLPSEVAAHYQDGVDETETVTWQSAALDWIRGAGTYTITGTTNAGHDVTVTVTVTATPAKDYVTDGSFENAENDKNWTIAGTGASITEDSGNAADGKRALKFWASDAYSFSATQTITGLEPGEYVLTAMSQGAAADNAAITDGVALSATTGGKTTSDALELNGWVKFDTATVPVTVGADGTATITITGNLPADAWGNVDKVSLVKKTETPVKPSTENLDKAVAEAGKINRDEYTNESLAKLDQALAAADVLLAGSTYTEQDVNDVIKLVADAIAGLAQKEVSSLTVTPSKTTYQVGDAIDADHDLKVVGNYSAGMGNVTLSADQFTLDYDFSAPADAAKVTVTLKSNPNVTETYTVAVTARAEGGSGNGSDGAGNGGATINPDTGEGDKTNGANGDKITGVLSNTGSAVTAVGLAVVVLGVAGGVSLALRRKRS”, the protein production result is reported as “failed”.

“MPKTLIILAHPNISQSTVHKHWSDAVRQHTDRFTVHELYAVYPQGKIDVAAEQKLIETHDSLVWQFPIYWFNCPPLLKQWLDEVLTYGWAYGSKGKALKGRKIALAVSLGAPAADYRADGAVGCSVAEVLRPFELTAKYCNADYRPPFTFHTIDSNAGYSEAARQEVERSARDYLAWLDALQQTLEHHHHHH”: the protein production result is “not failed”.

For “SKYKILVSFSNPESGKTLLKLANGLTKKLNSNASLTALHLSPTNELHHYNIEEYEKEIFDPIIEESQQLNQKVTTIFKASNDINYEVADTANKGDYDLLLVG”, the protein production entry was “failed”.

Regarding “ASDSAFTYNGVSITRPTNEVNDVISGVNITLEQTTEPNKPAIISVSRDNQAIIDSLTEFVKAYNELIPKLDEDTRYDADTKIAGIFNGVGDIRAIRSSLNNVFSYSVHTDNGVESLMKYGLSLDDKGVMSLDEAKLSSALNSNPKATQDFFYGSDSKDMGGREIHQEGIFSKFNQVIANLIDGGNAKLKIYEDSLDRDAKSLTKDKENAQELLKTRYNIMADVLPLMIAKSLKPIKNSIPCK”, the protein production entry is “failed”.

As for “MTQNNILLISGAILPVIITVIIGYISGKRKDFNWQQAGDINKIVMLYALPLSIFSNMVMTPRHIVMTMGPVAVAIILALILSFVIPLLVARYLFRRDLALSTLQALAIGSPAVPFIGTSVLAFLFGTVSASLITVSSITQNVFQLPLVMILMSVATGDKSQHISFGARVVNAIKQPVVWSPVIALIIVLADIHIPQTISMSLGLLGKASGGLALFAAGIVLYTRSIVITTATIITVIARNILVPGACYLILLKMGFSMEQIKEVVLTMAIPVGSIAIIIAMQYKTGEQEMASTMALSIIASIITMGGFIFLTF”, the protein production result was “failed”.

As for “MATFFFKTNYYQEIMLKRIFFLMIFFVSQTMASVFTHEEVQILKKHFLNNFQTNGAIVASPSQYNPNYYYDWIRDSAIAMGLVETWYEASQSARYKKLLLEYVSWTEKIQHQADPIAGQDILGEPKFYINGNPFDGEWGRPQNDGPALRASVLIRFAQQLLDHNEIDYVKSHLYNNTMDPQSMGTIKMDLEYIAHHWQDANFDLWEEVYGHHFFTAMAQQKALTDGAILAHQLHDRQAAVFYEMQANLINSRLKQHLDHQNKIIQATLLPHPGPQKTLELDSSVMLGILINPQKEGVFAPHHTFVQNTAKALHEQFNLMFPINKNRSGAILFGRYPGDTYDGYQTNSIGNPWFILTATMAEYYFTMAHNLSPNSINKLHIQNYLKKGDNYLRLIKQYGPDLNLSEQINLNTGVQQGATSLTWSYVSVLRAIHLREQLENRIKTTGWNTY”, the protein production entry is reported as “failed”.

As for “MGVRLVLRLVPRLVTRFTPLGLGMVALGCALVASFYSPPSFASIWDLLTNKRGVSQASVSKDSPRIELVGTLPADTELELIGFYYSSICTEKEMYFPSGDIANPQWRTKGTTSQLRQVVTSLHNASHFTQSVALQGGGACEWQLTNIQLNMSLLPSHRLWQEAQSLKKQYLAELPVAKVKDEALEKDAFKQSFDLIPTAKEADAASADSNDATITFSPIYYPIYSYAPEDKQPFDVGLKSSLQREVSDRWSLQHSRRIRLADERVTRVNFTPQIAEDYAVNIHILDRKSKVSYPDGTEFTYIKAGLRLYPYGSAESRFNSLQRSARLEDKRQLAKIYDSGIEHVFEGDKAKAEVLYRELGEAGDMESINWLRERARWGYIKDGQYWLARAAKLGDIQAQLELINQPLSVIPQGKVNTGQAKIREQQAWQTLTELTKQGIPQAVSTMAYYQVFSCSPYFNTTAALDNYRKSVKAQPDLARDAAETYYYFKEDLAQAREFFEIAAEREIDVAAEYAGILLAAEQRDPKRARYWLEKVVTAGDKQYIQQDVLGYAYFRLASLLDAGEGGDADPKRAITLYQQSIELGEGFSNDYQAKAKERLQSLQERHL”, the protein production entry was “failed”.

“MADLINILNHFVQEQPEAVAVRHTNDELTYKQLDEESSKLAHLLQDSKKPMILYGHMSPYMIVGMIGAIKSGCGYVPIDTSVPKERVNMIIDKVQPEIIFNTSDETLEQTNAQVLKVSDIQDSQYPIVFDSQMKQNDVVYTIFTSGSTGEPKGVQIEYASLNEFAEWMVSLNKTGTGKEWLNQAPFSFDLSVMAIYPCLTSGGTLNLVDKDMIKKPKLLNEMLVQTPMNVWVSTPSFIEMCLLLPNLNEQQYSSLKQFFFCGEILPHKTAKALVERFPNSMIYNTYGPTEATVAVTSIQITEEILNQYNPLPVGVARPGTKLFATEEGELVIEGQSVSLGYLKNEEKTTAVFNFEDGVRTYHTGDKAKIEDGLWFIQGRIDFQIKLNGYRMELEEIETQLRQSKHVREAVVVPVYKNGKVIHLIGAVVPTEPVEDNLAMTTHIKHELKSRLPEYMIPRKFEWMEQLPLTSNGKLDRKKIAEVVNG”: the protein production entry is “failed”.

Take “MKRNIFSIGFISVVLFIVLGACVGLAASEALQGSEQEINSAFSNQITPVISGDYIVWQDERDGNWDIYMYDMSAGRTETSLFNGPKDEIEPAISGSRVVLADNRRGNYDIYMYDISTKKEVQVTSDKSEQKEPAISEDIIVWTDRRNQNTDIYMYDLTTKEETRITDDKADQSQPAVWGNIIVWKDTRNGNEDIYMYDISAGKESPVVMDSAAQTNPVIEGDYIVWEDRRAGNLDIYMYEISTGKEKPVCTDPSPQKTPAISDGRIVWADGRIKGTNIFIYDIATGQEKTVSTASEYESNPSIDGNRIVWQDKRKGAMDIFMFTEDASETESTAGEKTEAETGSKAPLGIYPVSAGVIAAYLMINSGKKGKRKT”: the protein production result is “failed”.

Take “MAAYLERCDSVEEDYIDMEVTSFTNLVRKTLSNNYPREFEFQMSHLCPLEIDKTTSPADELFYKGKLLPLHLPPRLQMVQKILEDYTFDDEFYSTPLATGTVTTPVTSNTPFESCTVSPAESCQVSKELNPEDYFLEYSDSLEEDDEKKKSWTTKLRLMKQSSLGTKIKASRAYLRSFFGKTSCSDESSCASSAARVADEDSVLRYSRVKPFGQIKTERPKKQSNGSVSGSHRRSFSVSMRRQAAKSSNNKSSNSLGFRPLQFLKRSTSSSSEIENSIQGAILHCKQSQQQKQKQKQYSTVNEVGFCSLSASRIAARDDQEWAQMFRG”: the protein production result is listed as “failed”.

As for “MRINILSEDTSNKIAAGEVVERPFSVVKELVENSIDAGAKTINIEIENGGRTLIKVLDDGYGIDKDDIEKAFMPHATSKISKLQDIYSINTLGFRGEALPSIASVSKTTLKSRTKENEFGREISISGGSVDYIKDCGTNIGTHIEVRDLFYNVPAREKFLKSTAKEASSISDIVNRLALAHSEISFRLINNGKRVITTYATDNLIDTIRAIYGKKICDNVISFERHTDLVSVHGYVGNAEISRGSRNNQSIFINKRYIKNKLITAAVENAVKSFMMINKFPFFIIFLDIFPEFVDVNVHPTKSEVKFQNERDIFKIIFDTVHEGIRNSLKESFKVEALKEEEDKLFDIKEDVITKNEIKHDDKIDGYIKKDSFPVPVQIPIDLKRPIENYDNSTKENKDRSFDDFREKDIIKETSQEKETYDIITNKKAKFPELRVIGQFNNTYILAESFEELYIIDQHAAHEKILFEKYREDIKNKGVSSQILITPSVVELLPEDFIYYDENKEVFKNAGFVIEYFGDNTVAIKEVPLFLGKPLVKDLFLEIIDNLKNMGSGETSEVKYRSIATAACKSAVKAYHELTHDEMKTLIQDLRFAEDPFNCPHGRPTIVRLTVTDFEKKFKRIQ”, the protein production result was “failed”.

For the sequence “MSRKPLIAGNWKMNLNHYEAIALVQKIAFSLPDKYYDRVDVAVIPPFTDLRSVQTLVDGDKLRLTYGAQDLSPHDSGAYTGDVSGAFLAKLGCSYVVVGHSERRTYHNEDDALVAAKAATALKHGLTPIVCIGEHLDVREAGNHVAHNIEQLRGSLAGLLAEQIGSVVIAYEPVWAIGTGRVASAADAQEVCAAIRKELASLASPRIADTVRVLYGGSVNAKNVGDIVAQDDVDGGLVGGASLDGEHFATLAAIAAGGPLP”, the protein production result is reported as “not failed”.

With “MLIDSLHVSFDSFNFESILPMLVLVCGGIFTLLINAFTSRFSRNLNVFLCMLFLVLDFLVVLGLEEQENAFFGFLSLDTLSLISQSIVLISAFLLIFLALSKERFNEFQTAEFYSLYLFIVAGFQFMVSSNHLLLILIGLETASLPLCVLMALSDKRYGLEAGIKYFTMGAMASAFFAMGAMAFYLLTGSLNLEVITLYLHTEGITNPMLFAMGAIFLIGAIGFKVSLVPFHTWMPDVYEGNNPVFASYISIVPKIAGFVVATRLFGAFIDTRTAWVEDIFYVLILMTITIPNFIALWQEDVKRMLAYSSISHSGFALACVFIHTEDSQQAMFVYWFMFAFTYIGAFGLLWLLKSREKTWDERYDHPYSKFNGLIKTHPLVAILGAIFVFGLAGIPPFSVFWGKFLAVESALESNHILLAVVMLVNSAVAAFYYFRWLVAMFFNKPLQSYAQNDIYTQNATMPIYAVIIAMALACLFSVFMMRGLLEFVA”, the protein production result is given as “failed”.

Turning to “MSLTLRVVPELYCFDINVSQSFFVDVLGFEVKYERPDEEFVYLTLDGVDVMLEGIAGKSRKWLSGDLEFPLGSGVNFQWDVIDIEPLYQRVNESAADSIYLALESKSYQCGDSIATQKQFMVQTPDGYLFRFCQDIHEGHHHHHH”, the protein production entry is “not failed”.

Take “MTENPEEDNKVFNYWWLAHLVEVRLDAYLRTKKQADLEVAEKTYLHNKNRNGGTLIHDFYDDMLWNALAAYRLYKATGKSIYLEDAQLVWQDLVDTGWNDIMGGGFAWRRPQMYYKNTPVNAPFIILSCWLYNELNETKYLEWAMKTYEWQTKVLVREDGFVEDGINRLEDGTIDYEWKFTYNQGVYIGANLELYRITKEAKYLDTANKTAAISLKELTEDGIFKDEGNGGDEGLFKGIFYRYFTDLIEETANKTYRDFVLNSCQILVENAKLDGYLLMGMNWKEKPSGKIPYSAELSGMIALEMAAKLELEHHHHHH”: the protein production entry is “not failed”.
